The text below walks through data of article PMC12199161, “Structural and functional studies of the main replication protein NS1 of human parvovirus B19” (Nucleic Acids Research, 2025).

Values joined by “and” are separate entries in the source; they are usually repeats but may differ in a detail not shown here. Identical values can stand only once.

Data set [1] addresses T1, NS1_2-570 (Human parvovirus B19 isolate AU, UniProt P07298).
T1 construct: gene NS1; residues 2-570 of 671 (Nuc, OD, SF3 HD, TAD; ZnD missing); N-terminal His-MBP tag, TEV-treated; codon-optimized cDNA; E. coli Rosetta (DE3); monomer 62 kDa; ~830 kDa oligomer by gel filtration
The data set can be described thus: cryo-EM structure of complex. The class given is binding. To be noted: Mg2+ (5 mM MgCl2 in DNA complexes); Walker A site, one AMPPNP per protomer; DNA-free dodecamer; also ternary complexes with ssDNA (3.3 Å, hexamer) and dsDNA (3.43 Å, dodecamer).

Data set [2] concerns the molecule itself. The data set can be described thus: SEC; NS1_200-501 (WT and 3G mutant) on Superdex 200 Increase 10/30 GL.
For data set [3], the target named is NS1_2-570 (Human parvovirus B19 (B19V), UniProt I7BP20 2-570). The data set can be described thus: EMSA; no ATP or Mg2+ listed. To be noted: protein: recombinant; tags: N-terminal His6-MBP, TEV protease treated; chain copies: 12; label: 5'-FAM on top strand; blunt. For orientation: Mobility shift assays separate free from complexed probe on a gel.
The data set “cryo-EM structure” concerns the molecule itself. The data set can be described thus: cryo-EM structure.

T1 sequence (P07298 2-570): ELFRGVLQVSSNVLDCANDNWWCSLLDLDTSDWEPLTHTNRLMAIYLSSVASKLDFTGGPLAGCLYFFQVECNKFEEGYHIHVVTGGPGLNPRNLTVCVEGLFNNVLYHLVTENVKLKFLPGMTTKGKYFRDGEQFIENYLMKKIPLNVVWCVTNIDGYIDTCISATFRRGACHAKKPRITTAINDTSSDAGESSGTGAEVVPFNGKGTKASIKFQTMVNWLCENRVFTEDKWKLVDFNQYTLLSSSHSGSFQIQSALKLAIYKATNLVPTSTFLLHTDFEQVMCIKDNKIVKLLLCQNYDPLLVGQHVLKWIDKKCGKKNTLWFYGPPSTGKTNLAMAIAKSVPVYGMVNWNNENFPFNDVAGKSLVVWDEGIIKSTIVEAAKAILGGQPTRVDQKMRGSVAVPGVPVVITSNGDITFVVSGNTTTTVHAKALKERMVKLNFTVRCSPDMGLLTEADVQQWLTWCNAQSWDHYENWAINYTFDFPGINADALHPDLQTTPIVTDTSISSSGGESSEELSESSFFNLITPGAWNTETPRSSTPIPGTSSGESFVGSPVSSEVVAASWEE

As to `Nc1ncnc2c1ncn2[C@@H]1O[C@H](COP(=O)(O)OP(=O)(O)NP(=O)(O)O)[C@@H](O)[C@H]1O` [AMPPNP], on NS1_2-570 [1], the AMPPNP binding site entry was “one AMPPNP molecule is captured at the characteristic Walker A region of each NS1 protomer”.

B1: NS1_200-501 protein (domain or fragment)
chain: AEVVPFNGKGTKASIKFQTMVNWLCENRVFTEDKWKLVDFNQYTLLSSSHSGSFQIQSALKLAIFKATNLVPTSTFLLHTDFEQVMCIKDNKIVKLLLCQNYDPLLVGQHVLKWIDKKCGKKNTLWFYGPPSTGKTNLAMAIAKSVPVYGMVNWNNENFPFNDVAGKSLVVWDEGIIKSTIVEAAKAILGGQPTRVDQKMRGSVAVPGVPVVITSNGDITFVVSGNTTTTVHAKALKERMVKLNFTVRCSPDMGLLTEADVQQWLTWCNAQSWDHYENWAINYTFDFPGINADALHPDLQTT
notes: source: E. coli Rosetta (DE3), purified
In general, stoichiometry N refers to the number of molecules, sites or subunits per partner or assembly. Turning to B1, the “stoichiometry N” value in data set [2] came to 12.

B2: duplex DNA-1 (dsDNA)
DNA 1: AAGAAGACACCAAATCAGATGCCGCCGGTCGCCGCCGGTAGGCGGGAC
DNA 2: GTCCCGCCTACCGGCGGCGACCGGCGGCATCTGATTTGGTGTCTTCTT
On to B2, for which the binding result in the data set with NS1_2-570 [3] was “binds”.

B3: B19V NS1_2-570 protein (domain or fragment)
chain: ELFRGVLQVSSNVLDCANDNWWCSLLDLDTSDWEPLTHTNRLMAIYLSSVASKLDFTGGPLAGCLYFFQVECNKFEEGYHIHVVIGGPGLNPRNLTVCVEGLFNNVLYHLVTENVKLKFLPGMTTKGKYFRDGEQFIENYLMKKIPLNVVWCVTNIDGYIDTCISATFRRGACHAKKPRITTAINDTSSDAGESSGTGAEVVPFNGKGTKASIKFQTMVNWLCENRVFTEDKWKLVDFNQYTLLSSSHSGSFQIQSALKLAIFKATNLVPTSTFLLHTDFEQVMCIKDNKIVKLLLCQNYDPLLVGQHVLKWIDKKCGKKNTLWFYGPPSTGKTNLAMAIAKSVPVYGMVNWNNENFPFNDVAGKSLVVWDEGIIKSTIVEAAKAILGGQPTRVDQKMRGSVAVPGVPVVITSNGDITFVVSGNTTTTVHAKALKERMVKLNFTVRCSPDMGLLTEADVQQWLTWCNAQSWDHYENWAINYTFDFPGINADALHPDLQTTPIVTDTSISSSGGESSEELSESSFFNLITPGAWNTETPRSSTPIPGTSSGESFVGSSVSSEVVAASWEE
notes: source: E. coli Rosetta (DE3), purified (HisTrap, heparin, TEV protease, HisTrap, Superose 6 gel filtration)
As for B3, the “stoichiometry N” value in the data set “cryo-EM structure” is 12 and 6.
